PMC11427689, “Antagonistic nanobodies implicate mechanism of GSDMD pore formation and potential therapeutic application” (Nature Communications, 2024)

B1: VHH_(GSDMD-6) with C-terminal HA-His6 (VHH)
VHH: QVQLVETGGGLVQPGGSLRLSCTASGFIFSANQMNWVRQAPGKGLEWLSGISTRGDTTSYADSVKGRFTISRDNAKNTLYLQMNSLQPDDTAVYFCARVCIRGPEPKLRCDDWGQGTQVTVSS
notes: pHEN6-based periplasmic expression vector, small scale (HA-His6); also called HA-His-tagged nanobody; source: E. coli WK6, periplasmic extract, purified (Ni-NTA, desalting); not shown: HA, C-terminal, kept; His6, C-terminal, kept
B2: VHH_(GSDMD-3) with C-terminal HA-His6 (VHH)
VHH: QVQLVETGGGLVQPGGSLRLSCAASGFTLDIYNMGWFRQAPGKEREGVSCISSRYGTSTYYADSVKGRFTISRDNAKNTVYLQMNNLKPEDTAVYYCATVSWRFTTNQDVCLTPSVSGYWGQGTQVTVSS
notes: as for B1
B3: VHH_(GSDMD-5) with C-terminal HA-His6 (VHH)
VHH: QVQLVETGGGLVQPGGSLRLSCAASGFVFSINPMNWYRQAPGKERELVAYISMRGSTTNYADSVKGRFIISRDNAKNTLYLQMNSLKPEDTAVYYCNAPSRSVWGQGTQVTVSS
notes: as for B1
B4: VHH_(GSDMD-4) with C-terminal HA-His6 (VHH)
VHH: QVQLVESGGGLVQPGGSLRLSCAASGFTLDRHAIAWFRQAPGLEREGVVCTSSSGAITNTADSVKGRFTISRDDAKNTVYLQMNSLKPEDTAIYYCAVRELWTVQPICEPRPRAYAYWGQGTQVTVSS
notes: as for B1
B5: VHH_(GSDMD-1) with C-terminal HA-His6 (VHH)
VHH: QVQLVESGGALVQPGGSLRLSCSASGFTFSKYLMSWYRQAPGKERELVATITTAGGNTNYADSVKGRFTISRDNAKNTVYLQMNSLKPEDTAVYYCKASGGTIRTVNETYWGQGTQVTVSS
notes: as for B1
B6: VHH_(GSDMD-2) with C-terminal HA-His6 (VHH)
VHH: QVQLVESGGGLVQPGGSLRLSCVDSRSWINVYGANWYRQAPGKERELVAALTSGGTTNYADSVKGRFTISRDNAKNTVYLQMRDLKPEDTAVYYCNLERYTGSSVYPWGQGTQVTVSS
notes: as for B1
B7: VHH_(GSDMD-1) with a C-terminal HA tag, expressed in THP-1 cells (VHH)
VHH: QVQLVESGGALVQPGGSLRLSCSASGFTFSKYLMSWYRQAPGKERELVATITTAGGNTNYADSVKGRFTISRDNAKNTVYLQMNSLKPEDTAVYYCKASGGTIRTVNETYWGQGTQVTVSS
notes: Same nanobody as m2 and m11, other vector and host; also called VHH_(GSDMD-1)-HA; source: THP-1, lentiviral transduction, constitutive expression (pEF1α), in lysate; not shown: HA, C-terminal, kept
B8: VHH_(GSDMD-2) with a C-terminal HA tag, expressed in THP-1 cells (VHH)
VHH: QVQLVESGGGLVQPGGSLRLSCVDSRSWINVYGANWYRQAPGKERELVAALTSGGTTNYADSVKGRFTISRDNAKNTVYLQMRDLKPEDTAVYYCNLERYTGSSVYPWGQGTQVTVSS
notes: Same nanobody as m3 and m12, other vector and host; also called VHH_(GSDMD-2)-HA; source: THP-1, lentiviral transduction, constitutive expression (pEF1α), in lysate; not shown: HA, C-terminal, kept
B9: VHH_(GSDMD-3)-HA (VHH)
VHH: QVQLVETGGGLVQPGGSLRLSCAASGFTLDIYNMGWFRQAPGKEREGVSCISSRYGTSTYYADSVKGRFTISRDNAKNTVYLQMNNLKPEDTAVYYCATVSWRFTTNQDVCLTPSVSGYWGQGTQVTVSS
notes: also called VHH-HA; source: HEK293T, transfected (pCAGGS VHH-HA), in lysate; not shown: HA, C-terminal, kept
B10: VHH_(GSDMD-5)-HA (VHH)
VHH: QVQLVETGGGLVQPGGSLRLSCAASGFVFSINPMNWYRQAPGKERELVAYISMRGSTTNYADSVKGRFIISRDNAKNTLYLQMNSLKPEDTAVYYCNAPSRSVWGQGTQVTVSS
notes: as for B9
B11: VHH_(GSDMD-1)-HA (VHH)
VHH: QVQLVESGGALVQPGGSLRLSCSASGFTFSKYLMSWYRQAPGKERELVATITTAGGNTNYADSVKGRFTISRDNAKNTVYLQMNSLKPEDTAVYYCKASGGTIRTVNETYWGQGTQVTVSS
notes: as for B9
B12: VHH_(GSDMD-2)-HA (VHH)
VHH: QVQLVESGGGLVQPGGSLRLSCVDSRSWINVYGANWYRQAPGKERELVAALTSGGTTNYADSVKGRFTISRDNAKNTVYLQMRDLKPEDTAVYYCNLERYTGSSVYPWGQGTQVTVSS
notes: as for B9

Each binder was assayed against T1, His-SUMO-GSDMD (Homo sapiens, UniProt P57764) (assay: ELISA; SUMO-GSDMD or SUMO in PBS immobilised on ELISA plates at 1 μg/mL overnight; HA-tagged nanobodies in 10% FBS/PBS, 10-fold dilution series from 100 nM to 1 pM; detected with anti-HA HRP and TMB). Conditions: both partners purified.
T1 construct: human gasdermin D (GSDMD), expressed from pET28 as His-SUMO-GSDMD; the recombinant protein is called full-length in the results; it was cleavable with the SUMO protease ULP1; also called gasdermin D; source: E. coli LOBSTR, purified (Ni-NTA, gel filtration); not shown: SUMO, N-terminal, kept
T1 sequence (P57764 whole entry): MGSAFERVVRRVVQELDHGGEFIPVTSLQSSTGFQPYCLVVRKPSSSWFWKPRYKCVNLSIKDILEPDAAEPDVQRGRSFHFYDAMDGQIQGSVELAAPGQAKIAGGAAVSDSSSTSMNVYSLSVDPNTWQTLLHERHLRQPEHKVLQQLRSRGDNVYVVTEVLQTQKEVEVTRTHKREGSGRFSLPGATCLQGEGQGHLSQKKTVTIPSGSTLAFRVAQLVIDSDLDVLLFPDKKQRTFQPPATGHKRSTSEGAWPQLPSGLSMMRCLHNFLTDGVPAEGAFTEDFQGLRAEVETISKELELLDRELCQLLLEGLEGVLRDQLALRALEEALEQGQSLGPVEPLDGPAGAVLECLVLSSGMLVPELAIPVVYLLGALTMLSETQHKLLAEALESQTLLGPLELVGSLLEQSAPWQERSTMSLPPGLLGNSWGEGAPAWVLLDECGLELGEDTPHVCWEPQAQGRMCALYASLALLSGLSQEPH

Does B1 bind?
Result: binds

Does B2 bind?
Result: binds

Does B3 bind?
Result: binds

Does B4 bind?
Result: binds

Does B5 bind?
Result: binds

Does B6 bind?
Result: binds

What follows are binders tested against T2, GSDMD^NT (N-terminal domain of gasdermin D released by caspase cleavage) (Homo sapiens (endogenous, THP-1), UniProt P57764) (assay: non-reducing SDS-PAGE and immunoblot; PMA-differentiated THP-1 macrophages expressing HA-tagged nanobodies, stimulated with MxiH for 1 h; lysates in SDS-PAGE buffer without reducing agent; immunoblot with anti-GSDMD). Conditions: partners not purified.
T2 construct: also called processed GSDMD^NT; source: endogenous, lysate of PMA-differentiated THP-1 macrophages stimulated with MxiH
T2 sequence (P57764 whole entry, looked up, the tested form may be a part): as the sequence (P57764 whole entry) above

Does B7 bind?
Result: binds

Does B8 bind?
Result: binds

What follows are binders tested against T3, human GSDMD-Renilla luciferase fusion (Homo sapiens, UniProt P57764) (assay: co-IP; LUMIER assay: HEK293T co-transfected with VHH-HA and Renilla luciferase fusions; lysis in 50 mM Hepes-KOH pH 7.9, 150 mM NaCl, 2 mM EDTA, 0.5% Triton X-100, 5% glycerol; VHH-HA captured on anti-HA-coated plates for one hour; luminescence of co-purified Renilla luciferase normalised to lysate). Conditions: partners not purified.
T3 construct: human gasdermin D (GSDMD) fused to Renilla luciferase; A GSDMD 4 A fusion was tested as well; also called Renilla-fused bait protein human GSDMD; source: HEK293T, transfected (pcDNA3.1-based vector), in lysate
T3 sequence (P57764 whole entry, the tested form may be a part): as the sequence (P57764 whole entry) above

Does B9 bind?
Result: binds

Does B10 bind?
Result: binds

Does B11 bind?
Result: binds

Does B12 bind?
Result: binds
